Experiment [1] addresses GluA2 flop splice variant (UniProt P19491).
In experiment [2] the target is GluA2 flip splice variant (R/G edited) (UniProt P19491).
For experiment [3] the target is unchanged. The source holds these as a separate data set.
Experiment [4] has as its target GluA2, native in CA1 pyramidal cells (rat (endogenous in hippocampal slice cultures)) (UniProt P19491).

On to “GluA1 flip splice variant (from UniProt P19490-2 19-907) (receptor)”, for which the rectification index of patches from HEK293 cells expressing A1i/A2o and γ-8 (threshold by which patches were chosen) in experiment [1] was over 0.7. Moreover, the rectification index (g+10 / g-40) of I/V relationships with 100 uM intracellular spermine, HEK293T cells cotransfected at an A1/A2 ratio of 4:1; marker for heteromerization competence in experiment [2] worked out at 0.1.

In experiment [3], “GluA1 flop splice variant (from UniProt P19490 19-907) (receptor)” registered a rectification index of patches from HEK293 cells expressing A1o/A2i and γ-8 (threshold by which patches were chosen) of over 0.7. Further, in experiment [2], the rectification index (g+10 / g-40) of I/V relationships with 100 uM intracellular spermine, HEK293T cells cotransfected at an A1/A2 ratio of 4:1; marker for heteromerization competence turned out to be 0.7.

In experiment [4], “GluA1, native in CA1 pyramidal cells (from UniProt P19490 19-907) (receptor)” had a percentage block of the peak glutamate current by 100 μM philanthotoxin 74 (selective for A1/A2 heteromers), CA1 patches, control slices, mean of 95% and a percentage block of the peak glutamate current by 100 μM philanthotoxin 74 (selective for A1/A2 heteromers), CA1 patches, slices after 48 hr TTX, mean of 93.9%.

Source of the values: article PMC3500689.
